From article PMC8884905, “RECON syndrome is a genome instability disorder caused by mutations in the DNA helicase RECQL1” (The Journal of Clinical Investigation, 2022)
Numbering of substitutions follows the chain as printed. Names may count otherwise.

B1: recombinant human WT RECQL1 (enzyme, UniProt P46063 1-649, looked up)
chain: MASVSALTEELDSITSELHAVEIQIQELTERQQELIQKKKVLTKKIKQCLEDSDAGASNEYDSSPAAWNKEDFPWSGKVKDILQNVFKLEKFRPLQLETINVTMAGKEVFLVMPTGGGKSLCYQLPALCSDGFTLVICPLISLMEDQLMVLKQLGISATMLNASSSKEHVKWVHAEMVNKNSELKLIYVTPEKIAKSKMFMSRLEKAYEARRFTRIAVDEVHCCSQWGHDFRPDYKALGILKRQFPNASLIGLTATATNHVLTDAQKILCIEKCFTFTASFNRPNLYYEVRQKPSNTEDFIEDIVKLINGRYKGQSGIIYCFSQKDSEQVTVSLQNLGIHAGAYHANLEPEDKTTVHRKWSANEIQVVVATVAFGMGIDKPDVRFVIHHSMSKSMENYYQESGRAGRDDMKADCILYYGFGDIFRISSMVVMENVGQQKLYEMVSYCQNISKCRRVLMAQHFDEVWNSEACNKMCDNCCKDSAFERKNITEYCRDLIKILKQAEELNEKLTPLKLIDSWMGKGAAKLRVAGVVAPTLPREDLEKIIAHFLIQQYLKEDYSFTAYATISYLKIGPKANLLNNEAHAITMQVTKSTQNSFRAESSQTCHSEQGDKKMEEKNSGNFQKKAANMLQQSGSKNTGAKKRKIDDA
notes: RECQL1 (RECQL, RECQ1) DNA helicase, human, wild type; also called RECQ1; source: insect cells, purified to near homogeneity
B2: recombinant human RECQL1-A459S (enzyme, UniProt P46063 1-649, looked up)
chain: B1 chain with A459S
notes: Variant found in patients (RECON syndrome); also called p.A459S mutant RECQL1; RECQL1 p.Ala459Ser; source: insect cells, purified to near homogeneity

What was measured:
[1] = system: RECQL1 WT (human); assay: EMSA; settings: EMSA: 20 mM Tris pH 7.4, 10 mM KCl, 5 mM MgCl2, 10% glycerol, 80 ng/ul BSA, with or without 5 mM ATPgS, 0.5 nM DNA; competition at 37 C (8 min, then 7 min with …)
[2] = system: RECQL1-A459S (human); assay: EMSA; settings: EMSA: 20 mM Tris pH 7.4, 10 mM KCl, 5 mM MgCl2, 10% glycerol, 80 ng/ul BSA, with or without 5 mM ATPgS, 0.5 nM DNA; competition at 37 C (8 min, then 7 min with …)
[3] = system: RECQL1 WT (human); assay: EMSA; settings: EMSA: 20 mM Tris pH 7.4, 10 mM KCl, 5 mM MgCl2, 10% glycerol, 80 ng/ul BSA, with or without 5 mM ATPgS, 0.5 nM DNA; competition at 37 C (8 min, then 7 min with …); remark: listed apart in the source
[4] = system: RECQL1-A459S (human); assay: EMSA; settings: EMSA: 20 mM Tris pH 7.4, 10 mM KCl, 5 mM MgCl2, 10% glycerol, 80 ng/ul BSA, with or without 5 mM ATPgS, 0.5 nM DNA; competition at 37 C (8 min, then 7 min with …); remark: listed apart in the source
[5] = molecular target: the molecule itself; assay: SEC; size exclusion chromatography of the purified recombinant protein in the absence of ATP

| Molecule | Kd [1] | Kd [2] | Kd [3] | Kd [4] | binding result [5] |
| --- | --- | --- | --- | --- | --- |
| 19 bp forked duplex | 2.94 nM? | 4.74 nM? | 5.39 nM? | 7.69 nM? | – |
| B1 | – | – | – | – | binds |
| B2 | – | – | – | – | binds |
